Measurements taken from the supplement of paper PMC10065799, “High-throughput profiling of sequence recognition by tyrosine kinases and SH2 domains using bacterial peptide display” (eLife, 2023).

Each sequence was assayed on c-Src (assay: phosphorylation enrichment, bacterial display (enrichment ratio); higher = better substrate or ligand; peptides without Tyr show the background).
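Wherever SH2 binding enrichment of the phosphorylated peptide, bacterial display is given: peptide library displayed on the E. coli surface as eCPX fusions, selected cells deep-sequenced, score is each peptide's frequency after selection divided by its frequency in the input.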
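Wherever phosphorylation enrichment, bacterial display is given: 11-residue human phosphosite peptides and single-mutation variants displayed on the E. coli surface, counted by deep sequencing, each peptide's frequency after selection divided by its frequency in the unselected input library; frequency after pTyr selection over input frequency; kinase dosed for 20-30% of maximal phosphorylation in three min.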

In order of rising phosphorylation enrichment:
1. RLLVDYPWTQR [HBB_Y36_V35D]  0.351
2. EQMASYSGHSV [ITGA2B_Y319_F320S]  0.37
3. MGRVKYGAYIN [GLB1_Y485_N484K]  0.378
4. IRTDAYVRAMT [RPE65_Y89]  0.382
5. DLREKYMDCGG [HAP1_Y440]  0.389
6. SDIEEYVHRIG [DDX3X_Y525]  0.41
7. EQQDMYRLKVL [ABCC6_Y372_N370D]  0.415
8. RHEASYSSDSE [REPS1_Y116_A113E]  0.427
9. APTSGYQEFIH [IL4R_Y575_V579I]  0.442
10. FARNCYVAGQY [G6PD_Y107_S106C]  0.469
11. LLRLAYLADVF [ZBED5_Y476_I480V]  0.47
12. DIRAQYDELAQ [KRT18_Y256_R261Q]  0.473
13. EFGRRYGFSRQ [CCDC93_Y209_YF]  0.492
14. EESSHCSTEKE [ADAR_Y587_Y587C]  0.5
15. KLKNAYEECLE [MYH7_Y1488_S1491C]  0.502
16. KPSLKYVTFGN [GALNTL5_Y404_G401S_YF]  0.504
17. VNLVLYLSIAK [FBXO15_Y496]  0.512
18. DPADRYLTEQC [CDKL5_Y286]  0.523
19. MDNQEYKDAFK [BRDT_Y331_YF]  0.526
20. LAIEGYVVVCK [RHO_Y136_R135G]  0.526
21. RLLRGYDQFAF [HLA-B_Y137_H137Y_YF]  0.542
22. IEKLTYIDEWF [CPS1_Y872_K875E]  0.544
23. AASTDYNKRGD [PDHA1_Y242_Y243N]  0.618
24. SSAETYSRMCL [NBEAL2_Y1835_R1839C]  0.708
25. KVPAIYGVDTR [CPS1_Y162]  0.782
26. GKTFTYHSVFF [ZNF80_Y200_R201H]  0.999
27. PIQLFYTRKNT [GHR_Y86_R89K]  1.39
28. FSQQTYFPVSN [ABCD1_Y180_R182P_YF]  1.95
29. LFSNAYLSDLA [ALDH1A1_Y119_N121S_YF]  2.79
30. NVKGIYAVADV [GSR_Y371_G374A]  3.12
31. ITNLLYHVVGW [GBA_Y412]  4.6
32. DNEAIYDICRR [TUBA4A_Y210]  5.7
33. VYYGSYSRPYG [NKAP_Y104]  7.11

What follows are sequences tested against Grb2 SH2 (UniProt P62993) (assay: SH2 binding enrichment of the phosphorylated peptide, bacterial display (enrichment ratio); higher = better substrate or ligand; peptides without Tyr show the background).
Chain of Grb2 SH2 (P62993 whole entry, looked up): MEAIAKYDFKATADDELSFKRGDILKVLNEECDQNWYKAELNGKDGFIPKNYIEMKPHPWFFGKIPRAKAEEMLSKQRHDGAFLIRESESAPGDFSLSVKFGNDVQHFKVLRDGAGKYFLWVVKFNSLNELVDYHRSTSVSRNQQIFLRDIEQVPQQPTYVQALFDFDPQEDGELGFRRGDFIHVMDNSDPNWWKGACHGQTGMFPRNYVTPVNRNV

In order of falling SH2 binding enrichment:
1. MGRVKYGAYIN [GLB1_Y485_N484K]  2.27
2. LLRLAYLADVF [ZBED5_Y476_I480V]  1.97
3. VYYGSYSRPYG [NKAP_Y104]  1.64
4. RLLRGYDQFAF [HLA-B_Y137_H137Y_YF]  1.16
5. KLKNAYEECLE [MYH7_Y1488_S1491C]  1.08
6. MDNQEYKDAFK [BRDT_Y331_YF]  1.07
7. ITNLLYHVVGW [GBA_Y412]  0.998
8. SDIEEYVHRIG [DDX3X_Y525]  0.994
9. DLREKYMDCGG [HAP1_Y440]  0.938
10. DPADRYLTEQC [CDKL5_Y286]  0.918
11. GKTFTYHSVFF [ZNF80_Y200_R201H]  0.89
12. RLLVDYPWTQR [HBB_Y36_V35D]  0.883
13. APTSGYQEFIH [IL4R_Y575_V579I]  0.878
14. RHEASYSSDSE [REPS1_Y116_A113E]  0.861
15. EQQDMYRLKVL [ABCC6_Y372_N370D]  0.852
16. KVPAIYGVDTR [CPS1_Y162]  0.841
17. VNLVLYLSIAK [FBXO15_Y496]  0.829
18. NVKGIYAVADV [GSR_Y371_G374A]  0.826
19. EQMASYSGHSV [ITGA2B_Y319_F320S]  0.821
20. LAIEGYVVVCK [RHO_Y136_R135G]  0.818
21. EESSHCSTEKE [ADAR_Y587_Y587C]  0.81
22. LFSNAYLSDLA [ALDH1A1_Y119_N121S_YF]  0.783
23. PIQLFYTRKNT [GHR_Y86_R89K]  0.767
24. IRTDAYVRAMT [RPE65_Y89]  0.761
25. AASTDYNKRGD [PDHA1_Y242_Y243N]  0.754
26. SSAETYSRMCL [NBEAL2_Y1835_R1839C]  0.73
27. FARNCYVAGQY [G6PD_Y107_S106C]  0.709
28. IEKLTYIDEWF [CPS1_Y872_K875E]  0.698
29. EFGRRYGFSRQ [CCDC93_Y209_YF]  0.686
30. KPSLKYVTFGN [GALNTL5_Y404_G401S_YF]  0.68
31. FSQQTYFPVSN [ABCD1_Y180_R182P_YF]  0.647
32. DIRAQYDELAQ [KRT18_Y256_R261Q]  0.633
33. DNEAIYDICRR [TUBA4A_Y210]  0.613

The sequences below were run against SHP2-C SH2 in the same assay as above.

In order of rising SH2 binding enrichment:
1. VNLVLYLSIAK [FBXO15_Y496]  0.388
2. SSAETYSRMCL [NBEAL2_Y1835_R1839C]  0.486
3. APTSGYQEFIH [IL4R_Y575_V579I]  0.5
4. EFGRRYGFSRQ [CCDC93_Y209_YF]  0.508
5. IRTDAYVRAMT [RPE65_Y89]  0.527
6. DNEAIYDICRR [TUBA4A_Y210]  0.546
7. AASTDYNKRGD [PDHA1_Y242_Y243N]  0.574
8. DLREKYMDCGG [HAP1_Y440]  0.596
9. NVKGIYAVADV [GSR_Y371_G374A]  0.599
10. LFSNAYLSDLA [ALDH1A1_Y119_N121S_YF]  0.601
11. EQMASYSGHSV [ITGA2B_Y319_F320S]  0.615
12. EQQDMYRLKVL [ABCC6_Y372_N370D]  0.63
13. LAIEGYVVVCK [RHO_Y136_R135G]  0.634
14. GKTFTYHSVFF [ZNF80_Y200_R201H]  0.645
15. EESSHCSTEKE [ADAR_Y587_Y587C]  0.668
16. RHEASYSSDSE [REPS1_Y116_A113E]  0.686
17. DIRAQYDELAQ [KRT18_Y256_R261Q]  0.687
18. KPSLKYVTFGN [GALNTL5_Y404_G401S_YF]  0.697
19. FARNCYVAGQY [G6PD_Y107_S106C]  0.707
20. KVPAIYGVDTR [CPS1_Y162]  0.707
21. IEKLTYIDEWF [CPS1_Y872_K875E]  0.719
22. MDNQEYKDAFK [BRDT_Y331_YF]  0.721
23. DPADRYLTEQC [CDKL5_Y286]  0.747
24. KLKNAYEECLE [MYH7_Y1488_S1491C]  0.755
25. PIQLFYTRKNT [GHR_Y86_R89K]  0.756
26. FSQQTYFPVSN [ABCD1_Y180_R182P_YF]  0.811
27. RLLVDYPWTQR [HBB_Y36_V35D]  0.884
28. SDIEEYVHRIG [DDX3X_Y525]  0.892
29. ITNLLYHVVGW [GBA_Y412]  0.954
30. RLLRGYDQFAF [HLA-B_Y137_H137Y_YF]  1.25
31. MGRVKYGAYIN [GLB1_Y485_N484K]  1.51
32. VYYGSYSRPYG [NKAP_Y104]  1.81
33. LLRLAYLADVF [ZBED5_Y476_I480V]  2.41

Each sequence was assayed against c-Src SH2 in the same assay as above.

In order of rising SH2 binding enrichment:
1. LFSNAYLSDLA [ALDH1A1_Y119_N121S_YF]  0.36
2. VNLVLYLSIAK [FBXO15_Y496]  0.426
3. KVPAIYGVDTR [CPS1_Y162]  0.466
4. IRTDAYVRAMT [RPE65_Y89]  0.467
5. FARNCYVAGQY [G6PD_Y107_S106C]  0.469
6. IEKLTYIDEWF [CPS1_Y872_K875E]  0.488
7. DPADRYLTEQC [CDKL5_Y286]  0.507
8. EQMASYSGHSV [ITGA2B_Y319_F320S]  0.515
9. DNEAIYDICRR [TUBA4A_Y210]  0.516
10. LAIEGYVVVCK [RHO_Y136_R135G]  0.525
11. MDNQEYKDAFK [BRDT_Y331_YF]  0.532
12. SDIEEYVHRIG [DDX3X_Y525]  0.534
13. SSAETYSRMCL [NBEAL2_Y1835_R1839C]  0.545
14. EFGRRYGFSRQ [CCDC93_Y209_YF]  0.546
15. RLLVDYPWTQR [HBB_Y36_V35D]  0.554
16. EESSHCSTEKE [ADAR_Y587_Y587C]  0.562
17. AASTDYNKRGD [PDHA1_Y242_Y243N]  0.567
18. KPSLKYVTFGN [GALNTL5_Y404_G401S_YF]  0.575
19. EQQDMYRLKVL [ABCC6_Y372_N370D]  0.58
20. FSQQTYFPVSN [ABCD1_Y180_R182P_YF]  0.599
21. PIQLFYTRKNT [GHR_Y86_R89K]  0.605
22. RHEASYSSDSE [REPS1_Y116_A113E]  0.634
23. GKTFTYHSVFF [ZNF80_Y200_R201H]  0.655
24. DLREKYMDCGG [HAP1_Y440]  0.668
25. ITNLLYHVVGW [GBA_Y412]  0.962
26. RLLRGYDQFAF [HLA-B_Y137_H137Y_YF]  0.999
27. MGRVKYGAYIN [GLB1_Y485_N484K]  1.38
28. NVKGIYAVADV [GSR_Y371_G374A]  1.44
29. LLRLAYLADVF [ZBED5_Y476_I480V]  1.82
30. VYYGSYSRPYG [NKAP_Y104]  2.61
31. KLKNAYEECLE [MYH7_Y1488_S1491C]  2.71
32. APTSGYQEFIH [IL4R_Y575_V579I]  3.98
33. DIRAQYDELAQ [KRT18_Y256_R261Q]  7.43
